Reference: patent US20090232801A1 (ABBOT LABORATORIES, published 2009)
Substitutions are numbered along the chain they refer to. In names and notes the source's numbering stands.

Experiments:
[1] = biological target: T1, Aβ(1-42) globulomer (human); experiment: dot blot densitometry; reference: Aβ(1-40) monomer
T1 construct: the definition mentions n=12-14 for late assembly forms; also called human A-beta oligomer antigen (1-42); Aβ(1-42) globular oligomer
Experimental: (§1) The dot blot was developed with a development solution made from 1 tablet of NBT/BCIP (Roche) dissolved in 20 mL H₂O for 5 min. The development was stopped by intense washing of the dot blot with H₂O. Quantitative evaluation was done using a densitometric analysis (GS800 densitometer (BioRad) and software package Quantity one, Version 4.5.0 (BioRad)) of the dot-intensity. Only the dots for 10 pmol Aβ antigen were evaluated. Results for the Discrimination of Aβ Monomer Against Aβ Globulomer by Dot Blot Method: Comparison of 8F5hum8 Versus 4G8.
(§2) The humanized monoclonal antibody 8F5hum8 (0.2 μg/ml) were used for detection with an anti-human IgG coupled to alkaline phosphatase as secondary antibody and the staining reagent NBT/BCIP (Roche Diagnostics, Mannheim). The detection signal was analyzed in its intensity (reflective density=RD) via a densitometer (GS 800, Biorad, Hercules, Calif., USA) at an antigen concentration of 10 pmol. At this concentration for every Aβ-form, the measured reflective density was in the linear range of the densitometer detection.
(§3) Discrimination of anti-Aβ-antibodies of Aβ1-40 monomer and Aβ1-42 monomer. The discrimination was calculated as the ratio of detection signal of Aβ1-42 globulomer and Aβ1-42 monomer, respectively Aβ1-40 monomer.

[2] = biological target: T1, Aβ(1-42) globulomer; experiment: dot blot densitometry; reference: Aβ(1-42) monomer
Experimental: as §1, §2, §3

[3] = biological target: T2, Aβ(1-40) monomer (human); experiment: dot blot, 10 pmol antigen on nitrocellulose, 0.2 µg/ml antibody, densitometry
T2 construct: Human Aβ(1-40), Bachem H-1194, HFIP treated and dissolved in DMSO; also called Aβ40
Experimental: as §1, §2

[4] = biological target: T3, Aβ(1-42) monomer, HFIP pretreated (human); experiment: as above
T3 construct: Human Aβ(1-42), Bachem H-1368, monomer preparation in Pluronic F68 buffer; also called Aβ42 monomer
Experimental: as §1, §2

[5] = biological target: T1, Aβ(1-42) globulomer; experiment: as above
Experimental: as §1, §2

[6] = biological target: T1, Aβ(1-42) globulomer; experiment: competition ELISA, Expt. 1: unlabelled antibody against biotinylated Mu8F5 (1.0 µg/ml) on coated human A-beta oligomer antigen (1-42)
Experimental: (§4) MaxiSorp ELISA plates (Nalge Nunc International) were coated overnight at 4° C. with 100 μl/well of 5.0 μg/ml human A-beta oligomer antigen (1-42) (Abbott Biosciences Corporation, Worcester, Mass.) in PBS, washed with Wash Buffer (PBS containing 0.1% Tween 20), and blocked for 1 hr at room temperature with 340 μl/well of SuperBlock Blocking Buffer in PBS (Pierce Chemical Company). After washing with Wash Buffer, a mixture of biotinylated Mu8F5 (1.0 μg/ml final concentration) and competitor antibody (Mu8F5 or Hu8F5 starting at 27 μg/ml final concentration and serially diluted 3-fold) in 100 μl/well of 5% Superblock Blocking Buffer in PBS was added in triplicate. As a no-competitor control, 100 μl/well of 5% Superblock Blocking Buffer in PBS was used. After incubating the plates for 2 hrs at room temperature, and washing with Wash Buffer, bound antibodies were detected using 100 μl/well of 1 μg/ml HRP-conjugated streptavidin (Pierce Chemical Company) in 5% Superblock Blocking Buffer in PBS. After incubating for 30 min at room temperature, and washing with Wash Buffer, color development was performed by adding 100 μl/well of ABTS Peroxidase Substrate/Peroxidase Solution B (KPL). […] Absorbance was read at 415 nm.
(§5) The affinity of Hu8F5 to human A-beta oligomer antigen (1-42) was analyzed by competition ELISA as described in Materials and Methods. […]

[7] = biological target: T1, Aβ(1-42) globulomer; experiment: competition ELISA, average of 3 experiments: unlabelled antibody against biotinylated Mu8F5 on coated human A-beta oligomer antigen (1-42)
Experimental: as §4, §5

[8] = biological target: T1, Aβ(1-42) globulomer; experiment: competition ELISA, Expt. 2: unlabelled antibody against biotinylated Mu8F5 on coated human A-beta oligomer antigen (1-42)
Experimental: as §4, §5

[9] = biological target: T1, Aβ(1-42) globulomer; experiment: competition ELISA, Expt. 3: unlabelled antibody against biotinylated Mu8F5 on coated human A-beta oligomer antigen (1-42)
Experimental: as §4, §5

[10] = biological target: T1, Aβ(1-42) globulomer; experiment: competition ELISA, average of 3 experiments: competitor against biotinylated Mu8F5 on coated human A-beta oligomer antigen (1-42)
Experimental: as §4, §5

[11] = biological target: T1, Aβ(1-42) globulomer; experiment: competition ELISA, Expt. 2: competitor against biotinylated Mu8F5 on coated human A-beta oligomer antigen (1-42)
Experimental: as §4, §5

[12] = biological target: T1, Aβ(1-42) globulomer; experiment: competition ELISA, Expt. 1: competitor against biotinylated Mu8F5 on coated human A-beta oligomer antigen (1-42)
Experimental: as §4, §5

[13] = biological target: T1, Aβ(1-42) globulomer; experiment: competition ELISA, Expt. 3: competitor against biotinylated Mu8F5 on coated human A-beta oligomer antigen (1-42)
Experimental: as §4, §5

T1 sequence (peptide, as listed by the source): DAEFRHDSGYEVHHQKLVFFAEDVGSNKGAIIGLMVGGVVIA
T2 sequence (peptide, as listed by the source): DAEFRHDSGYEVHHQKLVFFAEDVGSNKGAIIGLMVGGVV

B1: humanized monoclonal antibody 8F5hum8 (antibody, V domains shown)
VH: EVQLVESGGGLVQPGGSLRLSCAASGFTFSSYGMSWVRQAPGKGLELVASINSNGGSTYYPDSVKGRFTISRDNAKNTLYLQMNSLRAEDTAVYYCASGDYWGQGTLVTVSS
VL: DIVMTQSPLSLPVTPGEPASISCRSSQSLVYSNGDTYLHWYLQKPGQSPKLLIYKVSNRFSGVPDRFSGSGSGTDFTLKISRVEAEDVGVYYCSQSTHVPWTFGGGTKVEIKR
notes: It was detected with anti-human IgG; also called humanized antibody 8F5; mMAb 8F5hum8
For B1, the “Ratio RD Aβ(1-42) globulomer/RD Aβ(1-40) monomer” value [1] was 59, the “Ratio RD Aβ(1-42) globulomer/RD Aβ(1-42) monomer” value [2] was 1.6 and the “Reflective Density (RD) [10 pmol]” value [3] was 0.04 RD. The “Reflective Density (RD) [10 pmol]” value [4] was 1.3 RD and the “Reflective Density (RD) [10 pmol]” value [5] was 2.2 RD.

B2: murine monoclonal antibody 8F5 (antibody, V domains shown)
VH: EVQLVESGGGLVQPGGSLKLSCAASGFTFSSYGMSWVRQTPDKRLELVASINSNGGSTYYPDSVKGRFTISRDNAKNTLYLQMSSLKSEDTAMYYCASGDYWGQGSTLTVSS
VL: DVVMTQTPLSLPVSLGDQASISCRSSQSLVYSNGDTYLHWYLQKPGQSPKLLIYKVSNRFSGVPDRFSGSGSGTDFTLKISRVEAEDLGVYFCSQSTHVPWTFGGGTKLEIK
notes: Mouse monoclonal antibody; also called Mu8F5; mouse 8F5 antibody
Binder B2 has an IC50 [6] of 4.58 µg/mL, an IC50 [7] of 5.08 µg/mL and an IC50 [8] of 4.87 µg/mL. For the same binder, the IC50 [9] was 5.81 µg/mL.

B3: Hu8F5v1 (humanized 8F5, heavy chain version 1) (antibody, V domains shown)
VH: B1 VH with L47W
VL: B2 VL with V2I, T7S, S14T, L15P, D17E, Q18P, L88V, F92Y, L109V
notes: Human IgG1/kappa, expressed in 293T/17 cells from modified pVg1.D.Tt (gamma-1 changed to z, non-a allotype: D356E, L358M, EU index) and pVk; also called Hu8F5VHv1 + Hu8F5VL
Binder B3 has an IC50 [10] of 6.36 µg/mL, an IC50 [11] of 6.85 µg/mL and an IC50 [12] of 6.28 µg/mL. The IC50 [13] was 5.93 µg/mL.

B4: Hu8F5v2 (humanized 8F5, heavy chain version 2) (antibody, human IgG1, V domains shown)
VH: B1 VH
VL: B2 VL with V2I, T7S, S14T, L15P, D17E, Q18P, L88V, F92Y, L109V
notes: Human IgG1/kappa, as for Hu8F5v1; The heavy chain differs from version 1 by the additional mouse residue at position 47 (W47L mutation of the Hu8F5VH gene); also called Hu8F5VHv2 + Hu8F5VL
B4 showed an IC50 [10] of 6.99 µg/mL, an IC50 [11] of 8.12 µg/mL and an IC50 [12] of 6.29 µg/mL. For the same binder, the IC50 [13] was 6.56 µg/mL.
